# ± gives the half width of the 95% confidence interval.
# Experiments:
# [1] = folding stability dG unfold from chymotrypsin proteolysis; higher = more stable
# Method: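 Folding stability of de novo designed mini-proteins (<80 aa, no Cys; designed by TrROS, TrMRF, ProteinMPNN and the joint model) was measured by cDNA display proteolysis with trypsin and chymotrypsin. Each protease was used at 11 concentrations in a threefold dilution series plus a no-protease condition. K50 was inferred by Bayesian fitting of sequencing counts, and dG unfold was derived against a sequence-predicted unfolded-state K50 (Tsuboyama et al. method). Sequences shown include variable-length N-terminal GS-type padding (SAGGSAGG...) inside a display construct carrying a PA tag. Rows were kept only if the AF2 dimer inter-PAE was >15, to exclude likely homo-oligomers.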
# [2] = folding stability dG unfold (combined trypsin and chymotrypsin); higher = more stable
# Summary of the method: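 Sequencing followed digestion of designed mini-proteins with trypsin and chymotrypsin, each at 11 concentrations in threefold dilutions together with a no-protease condition. The mini-proteins were under 80 residues, had no cysteine, sat in a PA-tagged cDNA display construct, and were kept only if AlphaFold2 dimer inter-PAE was above 15. From the counts, Bayesian fitting gave K50, and unfolding free energy was derived against a sequence-predicted unfolded-state K50 and a shared folded-state K50, per protease or combined.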
Sequence,folding stability dG unfold [1] [kcal/mol],folding stability dG unfold [2] [kcal/mol]
SAGGMTVVSTETDTATGRPVRTVRLPPEASLRELAALDGWVRLVDPAPDREVELPAEDPEAVVEALLASAGG [r13_604_JUSTAS],0.0196 ± 0.13,-0.504 ± 0.22
SAGGNLRIRIEMENKDGNKRKIPIPEEEFNRIKESLKNGKPITPEPASWISDYARRNGYDVKIVDIYSAGGS [r8_159_TrROS],-0.101 ± 0.36,-0.35 ± 0.33
SAGGPNFMFRVKMPHPRPKKDPEDGKEKWRPQRHEHTVPFPADDPEQALDELADNMPPNNFKITDITSAGGS [r16_459_TrROS],0.45 ± 0.22,-0.0582 ± 0.18
SAGGSAEIEPVSSEVDPNSDRTVTTNRIPGSGKTRTVTYDSSNPGVTTVTTYAPGGKPLSTTTLPTSAGGSA [r15_974_JUSTAS],-0.474 ± 0.28,< -1
SAGGSAGGALTPTDEVTLTLPDGTVRPGRVEVLPDNVVRVRLEGSEVLLTRDPEGDEVTVERVASAGGSAGG [r6_68_JUSTAS],0.964 ± 0.011,0.503 ± 0.047
SAGGSAGGAPVYVTTDTRERADPNGSTVRTSLVRDPNGPATYRVTETVPPDGSVASTTTAVPGASAGGSAGG [r6_839_JUSTAS],-0.532 ± 0.23,< -1
SAGGSAGGDIKIEDIEYEQNPGGWQKVEVRLPGNGRPIEVPVPPGMPYEQAKDWAKDWAEELLKSAGGSAGG [r6_628_TrROS],0.724 ± 0.13,0.511 ± 0.22
SAGGSAGGDKVTIESFHPENWYFRIRYPGNGKPISFPIKSVDELLDKIEPSGLPVEIEWMPPEESAGGSAGG [r6_33_TrROS],0.233 ± 0.26,-0.0248 ± 0.32
SAGGSAGGGASTRRTITVPYEDPEEAFEKVKEEVKAETGKPTEVTLTEIDPNNPGVITVEVTVSSAGGSAGG [r6_211_JUSTAS],0.938 ± 0.019,0.351 ± 0.07
SAGGSAGGKEVKVTLEYDEETGTLTLTVETPDGYVFKLEITFEKDEDGNLKVTIKLEVIPLEDLSAGGSAGG [r6_537_TrROS_Hall],4.45 ± 0.21,4.39 ± 0.61
SAGGSAGGKTKVKGTLIGPNGPPVEVEGEALLPDGREYDVHIDAVLLPDPEGEPTVVVKVEVKPSAGGSAGG [r6_334_TrMRF],0.168 ± 0.051,-0.127 ± 0.23
SAGGSAGGMFVPEGKTVTVKLPGNETVTVKVKAGNSRPFDSLEEIEAFAAQPGFDIEVSSSPAKSAGGSAGG [r6_433_JUSTAS],0.0627 ± 0.077,-0.722 ± 0.21
SAGGSAGGMLVPLDDTRVVPLPDGSYAVLVRPADGSELLREFDSLEDAVEWAEATGAGVADLPASAGGSAGG [r6_84_TrMRF],0.0582 ± 0.18,-0.553 ± 0.34
SAGGSAGGMPVVVETRPDPETGNEIVRITVPKPNYTLVLRRDSQGKETLLAEIGPYTPDDPGLLSAGGSAGG [r6_149_JUSTAS],0.474 ± 0.18,-0.00962 ± 0.23
SAGGSAGGMREIEHEIPNPNGRNIKIKIEYDPDQGWHPVEIENPGNGKKKTYPFDSADEVLDQLSAGGSAGG [r6_465_TrROS],0.598 ± 0.031,0.0475 ± 0.17
SAGGSAGGMTIKELLKEGVPFKIEMYGPNNGEPREFKIPPGESIDDILENMPFPPGMQIRIEPKSAGGSAGG [r6_232_TrROS],0.121 ± 0.31,-0.142 ± 0.42
SAGGSAGGMVITFTAPDGTPLGTVEVELPPNNPEAEEEARELAEALRAELEEAGRPVAATVEPASAGGSAGG [r6_884_JUSTAS],0.903 ± 0.088,0.309 ± 0.14
SAGGSAGGNTIELPLPNGMELEIPVQKNPEGYYQVNIERYDPDDGKKKEIPFTMPAEDIKDFLKSAGGSAGG [r6_859_TrROS],-0.205 ± 0.29,-0.785 ± 0.36
SAGGSAGGPPPVRVTIETETTTTFPNGTPRTTTNTVVLDAPEEEAEAAVAAIPASVVKSVARTGSAGGSAGG [r6_985_JUSTAS],0.486 ± 0.057,-0.187 ± 0.24
SAGGSAGGSAAPDLVTETETRTHPETGLVITRERVTLPSTGTTEERTVVTDPETGVTTTEKSSAGGSAGGSA [r18_383_JUSTAS],0.294 ± 0.038,-0.139 ± 0.13
SAGGSAGGSAGAYSATPVEERRLPDGSTLVRERVTDPATGTPALREVLVTDEGVEERLLPSAGGSAGGSAGG [r11_991_JUSTAS],0.415 ± 0.098,-0.458 ± 0.1
SAGGSAGGSAGEAASSLKLPPVTLTTPPVPVELPPGLTVESVEPVRTPSGETILVVNLVRSAGGSAGGSAGG [r11_388_JUSTAS],0.279 ± 0.13,-0.349 ± 0.19
SAGGSAGGSAGGDEILELERIPETGELVLRRITPDGEGFRIEEEVVPVGPELAEALPEGSAGGSAGGSAGGS [r10_291_TrMRF],-0.279 ± 0.34,< -1
SAGGSAGGSAGGDPDLPVYSVSPTTIPAPPGQDSPTPGPNSVTVDANGTATVTETSVSLVSAGGSAGGSAGG [r7_556_JUSTAS],-0.6 ± 0.2,< -1

Sequence,folding stability dG unfold [1] [kcal/mol],folding stability dG unfold [2] [kcal/mol]
SAGGSAGGSAGGDVNSPNIPPVLTVEPVEVLDPGGGGLRRRVVYVAPGGIVLETEERPESAGGSAGGSAGGS [r10_261_JUSTAS],0.702 ± 0.12,0.156 ± 0.16
SAGGSAGGSAGGGMEFSTVTVKRTLKTLGKTEVTTVPVVNPVPPPPPLGPENIARSRGVLSAGGSAGGSAGG [r7_79_JUSTAS],-0.0494 ± 0.21,< -1
SAGGSAGGSAGGGMKLRLVTYSITTTNKVFPSLEEALAAPPDETDGVDEIISSSLKPLLSAGGSAGGSAGGS [r10_729_JUSTAS],0.21 ± 0.17,-0.326 ± 0.15
SAGGSAGGSAGGGMTTTYTTETIEAPDGTVVIKKTTTYDYGNGSLTKPTIYNPDGTPIGSAGGSAGGSAGGS [r10_1056_JUSTAS],0.452 ± 0.14,-0.188 ± 0.12
SAGGSAGGSAGGGPAKALITSPDGSKAEATVTVDTATGTVTLTVENASLPPDWKLELLGSAGGSAGGSAGGS [r10_306_TrMRF],0.768 ± 0.065,0.0987 ± 0.23
SAGGSAGGSAGGGPGFTVLERREDPATGTVTILRRFAFPDGSTALEPRVVPRAPDERLESAGGSAGGSAGGS [r10_605_JUSTAS],-0.0135 ± 0.17,< -1
SAGGSAGGSAGGGPPVERVTTETILRPDGTTTTTRKTTVVPPTDTVTTTTTTLTTTPVTSAGGSAGGSAGGS [r10_1139_JUSTAS],0.328 ± 0.067,0.0441 ± 0.18
SAGGSAGGSAGGGRVLRLADGKWRLVELPDGSVVLVPENVPVLDPEAKEPVLVAPVLPLDSAGGSAGGSAGG [r7_968_TrMRF],0.938 ± 0.073,0.223 ± 0.06
SAGGSAGGSAGGGSVTRLPDGVTTVVTFPDGSTVTVPAGVPYTDPNAATPVTVSPVPPALSAGGSAGGSAGG [r7_968_JUSTAS],0.119 ± 0.1,< -1
SAGGSAGGSAGGGYVTLSHEIPPDQSVEITAPDGKKAKQERDPATKTVTYKISPELYKLLSAGGSAGGSAGG [r7_155_JUSTAS],-0.855 ± 0.56,< -1
SAGGSAGGSAGGKDEKPKPLKVPVIVAPAPEYLELAKKLLPPDKAKVIEKKDDKVVIAFGSAGGSAGGSAGG [r7_670_TrMRF],-0.425 ± 0.32,-0.533 ± 0.21
SAGGSAGGSAGGKKKVKILEVKKIPELNEIVVVIETENGKPVLVPLKPGKTLEDVKKEISAGGSAGGSAGGS [r10_984_TrMRF],0.913 ± 0.042,0.44 ± 0.21
SAGGSAGGSAGGKLTLKLGDYEVEVEWNPDEDVFIAEFPGDPRIARLRIPDDKIEIEPIESAGGSAGGSAGG [r7_156_TrMRF],0.819 ± 0.12,0.392 ± 0.11
SAGGSAGGSAGGKPITIERNEDNGPIEIRFPGNGRRIHFPFPPGDDITIDAEDGNIEIKSAGGSAGGSAGGS [r10_979_TrROS],0.827 ± 0.016,0.314 ± 0.086
SAGGSAGGSAGGKPTIKLKVTITNENGEKIEIEVEAESEEEALEALKALLPPGWKVEIESAGGSAGGSAGGS [r10_145_TrROS_Hall],2.82 ± 0.2,4.21 ± 0.67
SAGGSAGGSAGGKPVKVKVVIPVPDGDEVLVLEVEVEGEGGEEAVRQALEVAAELLREGSAGGSAGGSAGGS [r10_863_TrMRF],0.768 ± 0.088,0.0842 ± 0.23
SAGGSAGGSAGGKRRIQIPPDDPGMTAEQLADRLQKEFPENGVPVEITNIDDYGYIEIESAGGSAGGSAGGS [r10_579_TrROS],0.962 ± 0.021,0.443 ± 0.088
SAGGSAGGSAGGLHPDQEFAVRLDLDLDLRLGPGADLRVSDVRVGGVRVYDLRTGRWLDSAGGSAGGSAGGS [r10_248_TrMRF],0.445 ± 0.15,-0.323 ± 0.25
SAGGSAGGSAGGLKELADKLNPGFEIRVENIEPTPGPVRINVRAPNEGVPRSIPIDPDDISAGGSAGGSAGG [r7_303_TrROS],0.993 ± 0.018,0.479 ± 0.043
SAGGSAGGSAGGLLRAPDGSTAIVVRDASPETVARALHELNPNAVIVVAPIPNVAVIYLDSAGGSAGGSAGG [r7_370_TrMRF],0.178 ± 0.1,-0.575 ± 0.51
SAGGSAGGSAGGLPPGQKYVIKMYNPNGKRQEHEFEIPPGEPFKDFEFPNGWRYDIYPVKSAGGSAGGSAGG [r7_132_TrROS],0.0841 ± 0.29,-0.321 ± 0.42
SAGGSAGGSAGGMAVVVDSPEEAEEVIEELERSFPALGAKVVVPRVQVGDKLVLPLGLELSAGGSAGGSAGG [r7_588_TrMRF],0.0463 ± 0.068,-0.501 ± 0.15
SAGGSAGGSAGGMIKVLEKKEFTPPTGGKEYELKTLDESNGTESIIKFPKEEYKNLKIPSAGGSAGGSAGGS [r10_326_JUSTAS],0.681 ± 0.12,0.145 ± 0.2

# From the supplement of paper PMC12764529
